Earlier results in article PMC10947324.

Assays:
Settings in all cases: monomeric, unstructured Abeta
[1] = target: His13 (UniProt position 684, SGYEVHHQKLV)
[2] = target: His14 (UniProt position 685, GYEVHHQKLVF)
[3] = target: His6 (UniProt position 677, DAEFRHDSGYE)

Amyloid-beta peptide (Abeta), monomeric (Homo sapiens (inferred; the article discusses the peptide of Alzheimer's disease patients))
pKa [1]: 6.64
pKa [2]: 6.67
pKa [3]: 6.67
